Results taken from patent publication US10590168B2, “Substrates for FLT3 kinase and uses thereof” (REGENTS OF THE UNIVERSITY OF MINNESOTA, priority 2016, dated 2020).

Target: T1, FLT3 (Homo sapiens, UniProt P36888)
T1 sequence (P36888 27-993): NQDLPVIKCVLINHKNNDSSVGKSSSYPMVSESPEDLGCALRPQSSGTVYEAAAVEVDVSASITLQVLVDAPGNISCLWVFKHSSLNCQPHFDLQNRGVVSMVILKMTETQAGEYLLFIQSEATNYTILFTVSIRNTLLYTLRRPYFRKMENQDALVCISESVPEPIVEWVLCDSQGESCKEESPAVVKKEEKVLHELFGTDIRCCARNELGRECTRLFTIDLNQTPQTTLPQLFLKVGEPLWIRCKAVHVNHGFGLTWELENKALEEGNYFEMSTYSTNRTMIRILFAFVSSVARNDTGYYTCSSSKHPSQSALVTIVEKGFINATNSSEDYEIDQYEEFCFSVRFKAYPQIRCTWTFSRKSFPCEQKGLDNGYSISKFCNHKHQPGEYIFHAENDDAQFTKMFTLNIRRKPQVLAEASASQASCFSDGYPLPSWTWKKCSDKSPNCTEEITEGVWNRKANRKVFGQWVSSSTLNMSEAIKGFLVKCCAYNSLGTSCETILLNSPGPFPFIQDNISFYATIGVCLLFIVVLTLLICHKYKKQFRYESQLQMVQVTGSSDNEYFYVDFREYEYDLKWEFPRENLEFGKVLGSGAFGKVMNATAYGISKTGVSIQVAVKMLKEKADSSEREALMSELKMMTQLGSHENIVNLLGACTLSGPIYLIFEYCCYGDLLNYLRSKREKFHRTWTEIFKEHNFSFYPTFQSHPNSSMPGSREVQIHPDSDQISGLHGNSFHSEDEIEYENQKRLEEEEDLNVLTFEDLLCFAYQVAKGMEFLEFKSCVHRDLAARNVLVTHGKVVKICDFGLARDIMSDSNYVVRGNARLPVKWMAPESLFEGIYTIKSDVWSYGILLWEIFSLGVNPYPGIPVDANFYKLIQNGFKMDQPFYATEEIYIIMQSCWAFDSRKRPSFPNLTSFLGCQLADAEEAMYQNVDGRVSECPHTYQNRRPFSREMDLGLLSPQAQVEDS
Experiment: Phosphorylation of existing peptide substrate by FLT3
Assay type: biochemical
Details: in the applicant's experience

phosphorylation by FLT3: poorly phosphorylated
Sequence: FTDRLQQYISTR [Flt3tide, previously reported Flt3 substrate peptide (Böhmer & Uecker 2009)]
